Laboratory results from US20200270352A1.

Tests used:
[1] = target: soluble recombinant human IGF-1R hetero-tetramer (2 α chains and the extracellular domains of 2 β chains) with C-terminal 10-His tag (R&D Systems 305-GR-50) (human) (UniProt P08069); assay: SPR, Ln(2)/koff
[2] = target: soluble recombinant human IGF-1R hetero-tetramer (2 α chains and the extracellular domains of 2 β chains) with C-terminal 10-His tag (R&D Systems 305-GR-50) (human) (UniProt P08069); assay: SPR Biacore X100, His-captured h-IGF-1R (about 600 RU), mean of 4 experiments

B1: humanized antibody hz208F2 VH3/VL3 (hz208F2 H026/L024) (antibody, human IgG1, kappa, V domains shown)
VH: QVQLVQSGAEVKKPGASVKMSCKASGYTFTSYYIYWVKQAPGQGLEWLGWIWPGDGSTKYNEKFQGRVTLTADKSSNTAYMFLSSLRSEDTAVYFCASPMITPNYAMDYWGQGTLVTVSS
VL: DIQMTQSPSSLSASVGDRVTISCRASQDISKYLNWYQQKPGKAPKLLIYYTSRLHSGVPSRFSGRGSGTDYSLTISNLQPEDFATYFCQQGSTLPYTFGGGTKVEIKR
**Q.** What does the source list for B1?
**A.** half-life of the complex [1]: 2 to 3 h; Kd [2]: 0.06 nM
